Test results from patent publication US20030104443A1, “AFAP sequences, polypeptides, antibodies and methods” (University of West Virginia, priority 2001, published 2003).

Columns and labels:
actin filaments [1] = experiment: Confocal microscopy of rhodamine-phalloidin-labeled actin filaments; type: biochemical
From the text: (§1) Binding constants were derived from the sedimentation of rAFAP-110 by actin. Accordingly, rAFAP-110 in the pellet and supernatant correspond to the bound and free rAFAP-110, respectively. The sum of densities of rAFAP-110 bands in the supernatant and pellet corresponds to the total mass of rAFAP-110 in the sample. The data representing the bound rAFAP-110 as a function of free rAFAP-110 were fit by nonlinear least squares to both the Langmuir (B=BMAX/(1+Kd/F)) and […] 2 μM F-actin filaments and different concentrations of rAFAP-110 in 5 mM MgCl2, 1 mM EGTA, 2 mM ATP, and 50 mM KCl at 20,800×g for 30 min at 4° C. After the centrifugation, both supernatant and pellets were analyzed by SDS-PAGE gel. Confocal microscopy assays were performed as described (Ishikawa et al., 1998, J. Biol. Chem., 273:26991-26997). Briefly, 2 μM F-actin containing 10% rhodamine-phalloidin-labeled F-actin were mixed with different concentrations of rAFAP-110 or other purified recombinant proteins in 5 mM MgCl2, 1 mM EGTA, 2 mM ATP, and 50 mM KCl at RT for 30 min. After the incubation, the reactions were applied between glass slides and coverslips and observed under confocal microscopy (Zeiss, Oberkochen, Germany). Samples for negative staining were adsorbed to grids coated with nitrocellulose and stabilized with carbon (Ernest F. Fullam, Latham, N.Y.). Unbound protein was removed by successive washes with buffer and water before staining with 1% uranylacetate (Cooper and Pollard, 1982, Methods Enzymol., 85(PtB), 182-210; Pollard and Cooper, 1982, Methods Enzymol., 85(PtB), 211-233).
To further test AFAP-110's capability to cross-link actin filaments, we analyzed rhodamine-phalloidin-labeled actin filaments for cross-linking by confocal microscopy. In FIG. 9A, purified rAFAP-110 or rAFAP-110^Δcterm were incubated with rhodamine-phalloidin-labeled actin filaments. […] 1, actin filaments only; 2, rAFAP-110 with actin filaments; 3, rAFAP-110^Δcterm with actin filaments. FIG. 9B presents confocal microscopy images. Different concentrations of α-actinin (top two panels, low=0.0625 μM and high=1.25 μM) and rAFAP-110 (bottom two panels, low=0.106 μM and high=2.1 μM) were incubated with rhodamine-phalloidin-labeled actin filaments. […] Actin filaments labeled with rhodamine-phalloidin appeared uniformly fluorescent in the absence of an actin binding protein (FIG. 9A1). […] Electron microscopy was used to confirm rAFAP-110's ability to cross-link actin filaments.

recombinant PKCα = target: T1, recombinant PKCα (Homo sapiens, UniProt P17252); experiment: In vitro PKC kinase assay; type: biochemical; details: 10 μg rAFAP-110, 0.5 μg PKCα, radiolabeled ATP; FIG. 10A
T1 construct: purchased CalBiochem
Experimental: PKC kinase assays were carried out according to Current Protocols in Molecular Biology (Carter, 1997). Briefly, 10 μg rAFAP-110 purified as mentioned above was incubated at 30° C. for 30 min with 0.5 μg recombinant PKCα in reaction buffer (20 mM Tris, pH 7.5, 5 mM MgCl2, 0.2 mM CaCl2, 20 μg/ml phosphatidylserine, and 2 μg/ml diolein) to which 1 μCi [γ-^32P]ATP was added. Reactions were analyzed by SDS-PAGE.

F-actin = experiment: Actin binding assay (high-speed copelleting, 150,000×g)
Experimental: G-actin was polymerized to F-actin at 5 mM Tris-HCl, pH 8.0, 0.2 mM CaCl2, 0.5 mM DTT, 5 mM MgCl2, and 2 mM ATP at room temperature (RT) for 1 h. Different concentrations of rAFAP-110 were incubated with 2 μM F-actin in 5 mM MgCl2, 1 mM EGTA, 2 mM ATP, 50 mM KCl at RT for 30 min. The reactions were centrifuged at 150,000×g for 1 h at 4° C., and then both pellets and supernatants were collected and analyzed by SDS-PAGE gel.
as §1
The purified rAFAP-110 was incubated with actin filaments. The negative staining image was taken at 16,000 magnification. Black arrows indicate rAFAP-110 aggregates; and white arrow indicates actin filaments. […] The electron micrographs indicate that rAFAP-110 binds to the sides of actin filaments, which was supported by the fact that one mole of actin in filaments bound up to 1.7 mol of rAFAP-110 (FIG. 7C). FIG. 7C is a graph of bound rAFAP-110 versus free rAFAP-110. rAFAP-110 at 0.18,0.29,0.70, 1.34,2.63,3.73,4.67, 5.11,5.34,5.48, and 5.66 μM was incubated with 2 μM concentration of G-actin polymerized into actin filaments and were then centrifuged at 150,000×g. Both supernatants (S) and pellets (P) were applied to SDS-PAGE gel, followed by Coomassie staining. Density of AFAP-110 determined by scanning densitometry was fit as described.

actin filaments [2] = experiment: Low-speed cosedimentation assay (20,800×g), actin filament cross-linking; type: biochemical
From the text: as §1
Actin filaments are unable to efficiently pellet at 20,800×g unless cross-linked to form heavier particles (either isotropic networked or bundled actin filaments; Cooper and Pollard, 1982, supra; Pollard and Cooper, 1982, supra; Meyer et al., 1990, J. Cell. Biol. 110:2013-2024; Wachsstock et al., 1993, Biophys. J., 65: 205-214; Rybakova et al., 1996, J. Cell. Biol., 135:661-672). […] The purified recombinant proteins were incubated with actin filaments and then were centrifuged at 20,800×g. Both supernatants (S) and pellets (P) were applied to SDS-PAGE gel, followed by Coomassie staining. 1, rAFAP-110 with actin filaments; 2, rAFAP-110^Δcterm with actin filaments; 3, rAFAP-110 only; 4, rAFAP-110^Δcterm only; 5, actin filaments only. FIG. 8B is a graph of cross-linked actin filaments versus free rAFAP-110. rAFAP-110 at 0.05,0.11,0.21,0.43, 0.86, and 2.14 μM was incubated with the 2 μM concentration of G-actin polymerized into actin filaments. After the incubation, the reactions were centrifuged at 20,800×g. Both supernatants and pellets were applied to SDS-PAGE gel, followed by the Western blot analysis to detect rAFAP-110 and Coomassie blue staining to detect actin, respectively. The data of cross-linked actin filaments and free rAFA-110 were gathered by scanning densitometry of SDS-PAGE gel analysis.

[3] = least-squares fit to Hill equation, 2 μM F-actin, FIG. 7C
[4] = second experiment, Hill equation
[5] = least-squares fit to Hill equation, 2 μM actin, FIG. 8B

B1: rAFAP-110: Recombinant AFAP-110 purified after production as a GST bacterial fusion protein, using the PreScission Protease system (protein, UniProt Q90738 1-729, looked up)
Actin filament-associated …: MEELIVELRLFLELLDHEYLTSTVREKKAVITNILLRIQSSKGFEIKEHVQKPEVANSLPAPPQMPLPEIPQQWLPPDNGPPPLPTSSLPEGYYEEAVPVSPGKAPEYITSNYDSDAMSSSYESYDEEEEDGKGKKMRHQWPSEEASMDLVKDAKICAFLLRKKRFGQWTKLLCVIKENKLLCYKSSKDQQPQMELLLNDCSITYIPKDSKKKKHELKISHQGADALVLAVQSKEQAEQWLKVIKDVCSNCTGTVDSDGPLSSSPVHKTELEKKLSSERPSSDGEGAVENGITTVCNGKEQVKRKKSSKTEAKGTVTKVTGKKITKIIGLGKKKPSTDEQTSSAEEDVPTCGYLNVLSNNRWRERWCRVKDNKLIFHKDRTDLKTHIVSIPLRGCEVIPGLDSKHPLTFRLLRNGQEVAVLEASSSEDMGRWIGMLLAETGSSTDPGALHYDYIDVEMTASVIQAAKQTFCFMNRRVISTNPYRGSTANGYACPSGMALHYDDVPCINGSFKGKKPPATANGITGKVRTLNSQPKKPESVSCVKRTASNAEQYKYGKNRVEAVAKRLQSKEEELLKRKEALRNRLAQLRKERKDLRAAIEVNAGRKTQVILEDKLKKLEEECKTKEAERVNLELELTEVKESLKKALAGGITLGLAIEPKSGTSSPQSPIFKHRTLENSPISSCDTSDTECSIPVNSAAALKRPPSSNNSPCRGHVLRKAKEWEMKNGT
- confocal fluorescence pattern of actin filaments (actin filaments [1]; FIG. 9A, rAFAP-110 at 1.3 μM): organized into a lacy pattern of swollen and interconnected fluorescent tubes
- organization of actin filaments at low concentration (actin filaments [1]; α-actinin 0.0625 μM, rAFAP-110 0.105 μM, FIG. 9B): did not change the organization of actin filaments
- organization of actin filaments at high concentration (actin filaments [1]; α-actinin 1.25 μM, rAFAP-110 2.1 μM, FIG. 9B): caused some aggregation of actin filaments into large branched structures
- phosphorylation by PKCα in vitro (recombinant PKCα): phosphorylates
- direct binding to actin filaments (F-actin; 150,000×g for 1 h, FIG. 7A): bind to actin filaments directly
- rAFAP-110 bound per one mole of actin in filaments (F-actin; FIG. 7C): up to 1.7 mol
- BMAX (F-actin; [3]): 4.2 µM
- Kd (F-actin; [3]): 290 nM
- BMAX (F-actin; [4]): 1.5 µM
- Kd (F-actin; [4]): 240 nM
- actin cross-linked and sedimented at saturation (actin filaments [2]; 1.63 μM/2.0 μM total actin): 81.5%
- EC50 (actin filaments [2]; 2 μM actin, FIG. 8B, read-out: half maximal cross-linking): 260 nM
- sedimentation of actin filaments at low speed (actin filaments [2]; 20,800×g, FIG. 8A): efficiently sedimented
- BMAX (cross-linked actin filaments) (actin filaments [2]; [5]): 1.63 µM
- n (Hill equation, cross-linking) (actin filaments [2]; [5]): 1.7
- Kd (actin filaments [2]; least-squares fit to Hill equation, 2 μM actin, FIG. 8B, read-out: Kd (cross-linked actin filaments versus free rAFAP-110)): 260 nM
